Target: Tat translocon (TatABC) in inverted membrane vesicles (E. coli) (UniProt P69428)
Test: co-sedimentation

Tat translocon (TatABC) in inverted membrane vesicles (E. coli), sequence (P69428 whole entry, chain 1 of 3): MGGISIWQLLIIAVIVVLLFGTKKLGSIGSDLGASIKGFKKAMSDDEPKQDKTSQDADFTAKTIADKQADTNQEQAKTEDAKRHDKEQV
Tat translocon (TatABC) in inverted membrane vesicles (E. coli), sequence (P69425 whole entry, chain 2 of 3, further chain): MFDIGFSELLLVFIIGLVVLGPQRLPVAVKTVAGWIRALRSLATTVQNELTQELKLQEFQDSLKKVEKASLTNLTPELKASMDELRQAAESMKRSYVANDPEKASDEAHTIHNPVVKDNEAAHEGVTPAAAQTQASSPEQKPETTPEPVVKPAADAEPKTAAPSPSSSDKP
Tat translocon (TatABC) in inverted membrane vesicles (E. coli), sequence (P69423 whole entry, chain 3 of 3, further chain): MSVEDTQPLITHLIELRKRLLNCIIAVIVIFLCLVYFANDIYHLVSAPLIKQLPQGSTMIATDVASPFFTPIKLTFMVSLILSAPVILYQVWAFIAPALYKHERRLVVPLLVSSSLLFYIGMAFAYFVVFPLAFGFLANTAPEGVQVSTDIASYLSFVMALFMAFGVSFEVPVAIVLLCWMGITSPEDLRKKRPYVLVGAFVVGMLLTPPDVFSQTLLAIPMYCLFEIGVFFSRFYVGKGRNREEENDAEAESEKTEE

| percent decrease of precursor bound to the Tat machinery from 0.05 to 1 M KCl | percent inhibition of translocon binding by 1 M urea | amount bound to the Tat machinery (8.3 pmol added) | amount of precursor added at which translocon binding saturates | Substance |
| --- | --- | --- | --- | --- |
| 35% | 75% |  |  | pre-SufI (from UniProt P26648 28-470) (natural protein) |
|  |  | 0.5 pmol | 4 pmol | spTorA-GFP |
